Experiment [1] has as its target T1, human IL-2 (human, UniProt P60568 21-153).
T1 construct: The source is told for the ELISA; nothing else is said for the SPR
Nature of the experiment: SPR; multicycle kinetics, Biacore 8K+; knob domain constructs immobilised on a CM5 chip via amine coupling, IL-2 in solution; HBS-EP+; two-state binding model, only the fastest association and the slowest dissociation rate constants reported. The following applies: both partners purified. On the technique in general: Surface plasmon resonance follows binding to a sensor surface in real time, without labels.

The target in experiment [2] is T1, human IL-2. Nature of the experiment: SPR; […], Biacore 8K+; […]; HBS-EP+; […]. The following applies: both partners purified.

T1 sequence (P60568 21-153): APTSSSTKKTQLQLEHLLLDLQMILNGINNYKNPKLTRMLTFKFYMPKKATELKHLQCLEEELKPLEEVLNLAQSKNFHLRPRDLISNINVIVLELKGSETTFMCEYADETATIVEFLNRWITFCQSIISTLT

B1: aIL2_1-BECN1 (other, bovine (knob domain))
chain: YQREYSEFKRQQLELDDELGSSCPESYRFHSDRWSRNCCIPDSWDDSYVWNCDHYAVRPAIGSLIQELEDVEKNRKIVAENL
notes: also called aIL2_1, BECN1 framework; not shown: His8, C-terminal, kept
As a reminder, the Kd is the constant that tells how readily two partners part at equilibrium. Higher therefore signals lower affinity. Consider B1, for which the affinity in experiment [1], expressed as Kd, was 10.8 nM.

B2: aIL2_1-SNV-N (other)
chain: LKEVQDNIGSSCPESYRFHSDRWSRNCCIPDSWDDSYVWNCDHYAVRPAIGSLKRELADL
notes: also called aIL2_1, SNV-N framework; not shown: His8, C-terminal, kept
In turn, B2 returned a Kd in experiment [2] of 9.4 nM.

For the origin of these results see article PMC11008599 (Frontiers in Immunology, 2024).
